{"source": "patent US6395306", "about": "(PAN PACIFIC PHARMACEUTICALS, dated 2002)", "binders": {"B1": {"name": "PX3.101 protein purified from honeybee venom (other)", "chain": "GGFGGFGGFGGLGGRGKCPSNEIFSRCDGRCQRFCPNVVPKPLCIKICAPGCVCRLGYLRNKKKVCVPRSKCG"}}, "target": "T1, CXCR2 (human, UniProt P25025 1-360)", "T1 sequence": "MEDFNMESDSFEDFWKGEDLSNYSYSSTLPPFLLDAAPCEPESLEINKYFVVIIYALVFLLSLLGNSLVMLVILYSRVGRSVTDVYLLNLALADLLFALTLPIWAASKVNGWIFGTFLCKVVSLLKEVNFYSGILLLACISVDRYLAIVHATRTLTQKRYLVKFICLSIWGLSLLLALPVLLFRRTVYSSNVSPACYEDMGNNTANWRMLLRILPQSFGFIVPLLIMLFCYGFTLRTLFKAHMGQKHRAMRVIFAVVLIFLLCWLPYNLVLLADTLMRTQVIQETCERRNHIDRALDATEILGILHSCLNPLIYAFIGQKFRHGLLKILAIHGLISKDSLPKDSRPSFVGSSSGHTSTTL"}
{"binder": "B1", "values": [{"measurement": "IC50", "result": 500, "unit": "nM"}]}
